Reference: the Immune Epitope Database (IEDB)

Experiments:
HLA-B*15:01 [1] = assay: IEDB peptide-MHC binding, purified MHC/competitive/fluorescence; filed as Kd, often an IC50 or EC50 that approximates it; ≥ and ≤ were set here for values at or beyond the usual limits of such assays
HLA-B*57:01 [2] = assay: as above
HLA-A*26:01 [3] = assay: as above
HLA-A*02:01 = assay: as above
HLA-B*51:01 [4] = assay: as above
HLA-B*27:03 [5] = assay: as above
HLA-A*02:03 = assay: as above
HLA-A*02:19 = assay: as above
HLA-B*15:17 = assay: as above
HLA-A*02:12 = assay: as above
HLA-A*03:01 [6] = assay: as above
HLA-B*39:01 = assay: as above
HLA-A*24:03 = assay: as above
HLA-A*02:11 = assay: as above
HLA-A*02:16 = assay: as above
HLA-B*18:01 = assay: as above
HLA-B*46:01 [7] = assay: as above
HLA-B*48:01 = assay: IEDB peptide-MHC binding, purified MHC/direct/fluorescence; filed as Kd, often an IC50 or EC50 that approximates it; ≥ and ≤ were set here for values at or beyond the usual limits of such assays; details: source organism: Escherichia coli O157:H7
HLA-A*01:01 [8] = assay: as above; details: source organism: Escherichia coli O157:H7
HLA-B*57:01 [9] = assay: as above; details: source organism: Escherichia coli O157:H7
HLA-B*27:05 = assay: as above; details: source organism: Escherichia coli O157:H7
HLA-A*11:01 = assay: as above; details: source organism: Escherichia coli O157:H7
HLA-B*58:01 [10] = assay: as above; details: source organism: Escherichia coli O157:H7
HLA-A*31:01 = assay: as above; details: source organism: Escherichia coli O157:H7
HLA-A*03:01 [11] = assay: as above; details: source organism: Escherichia coli O157:H7
HLA-B*40:01 = assay: as above; details: source organism: Escherichia coli O157:H7
HLA-B*46:01 [12] = assay: as above; details: source organism: Escherichia coli O157:H7
HLA-A*69:01 = assay: IEDB peptide-MHC binding, purified MHC/competitive/fluorescence; filed as Kd, often an IC50 or EC50 that approximates it; ≥ and ≤ were set here for values at or beyond the usual limits of such assays
HLA-B*08:01 = assay: as above; details: source organism: Escherichia coli O157:H7 str. EDL933
HLA-C*14:02 = assay: IEDB peptide-MHC binding, purified MHC/direct/fluorescence; filed as Kd, often an IC50 or EC50 that approximates it; ≥ and ≤ were set here for values at or beyond the usual limits of such assays; details: source organism: Mycobacterium tuberculosis str. Haarlem
HLA-C*06:02 = assay: as above; details: source organism: Homo sapiens
HLA-A*01:01 [13] = assay: IEDB peptide-MHC binding, purified MHC/competitive/fluorescence; filed as Kd, often an IC50 or EC50 that approximates it; ≥ and ≤ were set here for values at or beyond the usual limits of such assays
HLA-A*29:02 = assay: as above
HLA-B*15:01 [14] = assay: IEDB peptide-MHC binding, purified MHC/direct/fluorescence; filed as Kd, often an IC50 or EC50 that approximates it; ≥ and ≤ were set here for values at or beyond the usual limits of such assays; details: source organism: Vibrio parahaemolyticus AQ3810
HLA-A*26:01 [15] = assay: as above; details: source organism: Vibrio parahaemolyticus AQ3810
HLA-B*51:01 [16] = assay: as above; details: source organism: Vibrio parahaemolyticus AQ3810
HLA-B*27:03 [17] = assay: as above; details: source organism: Vibrio parahaemolyticus AQ3810
HLA-A*68:02 = assay: IEDB peptide-MHC binding, purified MHC/competitive/fluorescence; filed as Kd, often an IC50 or EC50 that approximates it; ≥ and ≤ were set here for values at or beyond the usual limits of such assays; details: source organism: Giardia lamblia ATCC 50803
HLA-B*58:01 [18] = assay: as above
HLA-B*15:09 = assay: IEDB peptide-MHC binding, purified MHC/direct/fluorescence; filed as Kd, often an IC50 or EC50 that approximates it; ≥ and ≤ were set here for values at or beyond the usual limits of such assays
[19] = source organism: Bacillus cereus ATCC 4342
[20] = source organism: Escherichia coli O157:H7 str. EDL933
[21] = source organism: Giardia lamblia ATCC 50803
[22] = source organism: Escherichia coli O139:H28 str. E24377A
[23] = source organism: Yersinia pestis Nepal516
[24] = source organism: Francisella tularensis subsp. tularensis FSC198

Sequence: GLFWGGIWY
- Kd (HLA-B*15:01 [1]; [19]): ≥ 20 µM
- Kd (HLA-B*57:01 [2]; [19]): ≥ 20000 nM
- Kd (HLA-A*26:01 [3]; [19]): ≥ 20 µM
- Kd (HLA-A*02:01; [19]): ≥ 20000 nM
- Kd (HLA-B*51:01 [4]; [19]): ≥ 20 µM
- Kd (HLA-B*27:03 [5]; [19]): ≥ 20 µM
- Kd (HLA-A*02:03; [19]): ≥ 20 µM
- Kd (HLA-A*02:19; [19]): ≥ 20 µM
- Kd (HLA-B*15:17; [19]): ≥ 20 µM
- Kd (HLA-A*02:12; [19]): ≥ 20 µM
- Kd (HLA-A*03:01 [6]; [19]): ≥ 20 µM
- Kd (HLA-B*39:01; [19]): ≥ 20 µM
- Kd (HLA-A*24:03; [19]): ≥ 20 µM
- Kd (HLA-A*02:11; [19]): 0.834 µM
- Kd (HLA-A*02:16; [19]): 5.63 µM
- Kd (HLA-B*18:01; [19]): ≥ 20 µM
- Kd (HLA-B*46:01 [7]; [19]): ≥ 20 µM

Sequence: FIVEHINAM
- Kd (HLA-B*48:01): ≥ 20 µM
- Kd (HLA-A*01:01 [8]): ≥ 20 µM
- Kd (HLA-B*57:01 [9]): ≥ 20 µM
- Kd (HLA-B*27:05): ≥ 20 µM
- Kd (HLA-A*11:01): ≥ 20 µM
- Kd (HLA-B*58:01 [10]): ≥ 20 µM
- Kd (HLA-A*31:01): ≥ 20 µM
- Kd (HLA-A*03:01 [11]): ≥ 20 µM
- Kd (HLA-B*40:01): ≥ 20 µM
- Kd (HLA-B*46:01 [12]): 232 nM
- Kd (HLA-A*69:01; [20]): 0.68 µM
- Kd (HLA-B*15:01 [1]; [20]): 0.0925 µM
- Kd (HLA-A*02:01; [20]): 10.4 nM
- Kd (HLA-B*08:01): 910 nM

Sequence: AAIAVGVAL
- Kd (HLA-C*14:02): ≥ 20 µM

Sequence: NYIDKVRFL
- Kd (HLA-C*06:02): 4 nM
- Kd (HLA-A*01:01 [13]; source organism: Homo sapiens): ≥ 20 µM
- Kd (HLA-A*29:02; source organism: Homo sapiens): 109 nM

Sequence: MAYGFFNNI
- Kd (HLA-B*15:01 [14]): ≥ 20 µM
- Kd (HLA-A*26:01 [15]): ≥ 20 µM
- Kd (HLA-B*51:01 [16]): 30 nM
- Kd (HLA-B*27:03 [17]): ≥ 20 µM

Sequence: AILAGEHKC
- Kd (HLA-B*15:01 [1]; [21]): ≥ 20 µM
- Kd (HLA-B*57:01 [2]; [21]): ≥ 20000 nM
- Kd (HLA-A*26:01 [3]; [21]): ≥ 20 µM
- Kd (HLA-A*02:01; [21]): ≥ 20000 nM
- Kd (HLA-B*51:01 [4]; [21]): ≥ 20 µM
- Kd (HLA-A*29:02; [21]): ≥ 20000 nM
- Kd (HLA-B*27:03 [5]; [21]): ≥ 20 µM
- Kd (HLA-A*02:03; [21]): ≥ 20 µM
- Kd (HLA-A*02:19; [21]): ≥ 20 µM
- Kd (HLA-B*15:17; [21]): ≥ 20 µM
- Kd (HLA-A*02:12; [21]): 3.73 µM
- Kd (HLA-A*03:01 [6]; [21]): ≥ 20 µM
- Kd (HLA-B*39:01; [21]): ≥ 20 µM
- Kd (HLA-A*24:03; [21]): ≥ 20 µM
- Kd (HLA-A*02:11; [21]): ≥ 20 µM
- Kd (HLA-B*18:01; [21]): ≥ 20 µM
- Kd (HLA-B*46:01 [7]; [21]): ≥ 20 µM

Sequence: ISKANWMTY
- Kd (HLA-A*69:01; [21]): ≥ 20 µM
- Kd (HLA-B*57:01 [2]; [21]): 83.7 nM
- Kd (HLA-A*26:01 [3]; [21]): ≥ 20 µM
- Kd (HLA-A*02:01; [21]): ≥ 20000 nM
- Kd (HLA-B*51:01 [4]; [21]): ≥ 20 µM
- Kd (HLA-A*68:02): ≥ 20 µM
- Kd (HLA-B*27:03 [5]; [21]): ≥ 20 µM
- Kd (HLA-A*02:03; [21]): ≥ 20 µM
- Kd (HLA-A*02:19; [21]): ≥ 20 µM
- Kd (HLA-A*02:12; [21]): ≥ 20 µM
- Kd (HLA-A*03:01 [6]; [21]): ≥ 20 µM
- Kd (HLA-B*39:01; [21]): ≥ 20 µM
- Kd (HLA-A*24:03; [21]): ≥ 20 µM
- Kd (HLA-A*02:11; [21]): ≥ 20 µM
- Kd (HLA-A*02:16; [21]): ≥ 20 µM
- Kd (HLA-B*18:01; [21]): ≥ 20 µM

Sequence: ITAALAWSL
- Kd (HLA-A*01:01 [13]; [22]): ≥ 20 µM
- Kd (HLA-A*02:01; [22]): 72.5 nM
- Kd (HLA-B*58:01 [18]; [22]): 672 nM

Sequence: YDAHHRFIL
- Kd (HLA-B*15:09; source organism: Listeria monocytogenes serotype 4b str. H7858): ≥ 20000 nM

Sequence: YSSPHLLRY
- Kd (HLA-A*01:01 [13]; [23]): 0.0103 µM
- Kd (HLA-B*58:01 [18]; [23]): 4.5 nM
- Kd (HLA-A*03:01 [6]; [23]): 0.258 µM

Sequence: TMDVYVMIL
- Kd (HLA-B*15:09; source organism: Vibrio cholerae V52): 384 nM
- Kd (HLA-B*39:01; source organism: Vibrio cholerae MAK 757): 0.0123 µM

Sequence: TVIEGLDKL
- Kd (HLA-A*02:01; [24]): 88.4 nM
- Kd (HLA-A*02:16; [24]): 0.195 µM

Sequence: IANTTDHFF
- Kd (HLA-A*69:01; [21]): ≥ 20 µM
- Kd (HLA-B*57:01 [2]; [21]): 159 nM
- Kd (HLA-A*26:01 [3]; [21]): ≥ 20 µM
- Kd (HLA-A*02:01; [21]): ≥ 20000 nM
- Kd (HLA-B*51:01 [4]; [21]): ≥ 20 µM
- Kd (HLA-A*68:02): ≥ 20 µM
- Kd (HLA-B*27:03 [5]; [21]): ≥ 20 µM
- Kd (HLA-A*02:03; [21]): ≥ 20 µM
- Kd (HLA-A*02:19; [21]): ≥ 20 µM
- Kd (HLA-A*02:12; [21]): ≥ 20 µM
- Kd (HLA-A*03:01 [6]; [21]): ≥ 20 µM
- Kd (HLA-B*39:01; [21]): ≥ 20 µM
- Kd (HLA-A*24:03; [21]): ≥ 20 µM
- Kd (HLA-A*02:16; [21]): ≥ 20 µM
- Kd (HLA-B*18:01; [21]): ≥ 20 µM
